Measured values as given in paper PMC3176149, “Application of Celluspots peptide arrays for the analysis of the binding specificity of epigenetic reading domains to modified histone tails” (BMC Biochemistry, 2011).

Molecular target: FITC-coupled H3K9me3-S10ph peptide (amino acids 1-19) (UniProt P68431)
Test: fluorescence polarisation; fluorescence depolarization in solution, purified FITC-coupled H3 1-19 peptides, Varian Carry Eclipse spectrophotometer, as described [40]; fit to a binary binding equilibrium

Kd: > 50 µM
Substance: MPP8 Chromo domain (M-phase phosphoprotein 8), GST fusion (from UniProt Q99549 58-112) (domain or fragment)
